Measurements: the supplement of paper PMC12764529
± gives the half width of the 95% confidence interval.

Tests used:
[1] = folding stability dG unfold from trypsin proteolysis; higher = more stable
Procedure: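 Folding stability of de novo designed mini-proteins (<80 aa, no Cys; designed by TrROS, TrMRF, ProteinMPNN and the joint model) was measured by cDNA display proteolysis with trypsin and chymotrypsin. Each protease was used at 11 concentrations in a threefold dilution series plus a no-protease condition. K50 was inferred by Bayesian fitting of sequencing counts, and dG unfold was derived against a sequence-predicted unfolded-state K50 (Tsuboyama et al. method). Sequences shown include variable-length N-terminal GS-type padding (SAGGSAGG...) inside a display construct carrying a PA tag. Rows were kept only if the AF2 dimer inter-PAE was >15, to exclude likely homo-oligomers.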

[2] = folding stability dG unfold (combined trypsin and chymotrypsin); higher = more stable
Procedure, shortened: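 K50 was inferred by Bayesian fitting of sequencing counts obtained after protease digestion of designed mini-proteins. Unfolding free energy was derived by comparison with a sequence-predicted unfolded-state K50 and a shared folded-state K50, for each protease or both combined. The mini-proteins were under 80 residues, had no cysteine, were carried in a PA-tagged cDNA display construct, and were kept only if AlphaFold2 dimer inter-PAE exceeded 15.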

| Sequence | folding stability dG unfold [1] [kcal/mol] | folding stability dG unfold [2] [kcal/mol] |
| --- | --- | --- |
| SAGGSAGGPPDDVEPEEFTFRFGDKPIKVEILRVNPDNNNIMIKHESNGKPKTMMFPPEDLEKLSAGGSAGG [r6_421_TrROS] | -0.129 ± 0.29 | -0.0461 ± 0.25 |
| SAGGSAGGSIEIDHDRDPGTNRYTATVEIPDPDGKGLEVEVQMNGDPEDAAKTAAKTVLEEFNSAGGSAGGS [r20_33_TrROS] | 0.07 ± 0.27 | < -1 |
| SAGGSAGGNPEDKERRYVRMPIKVTVPNPNGKKIKIPIYMPVGDPERMMPRAIKFARELAKKGLSAGGSAGG [r6_903_TrROS] | -0.301 ± 0.7 | < -1 |
| SAGGGAEEEAKKIAEELEKIGGVKKVEVEVKPKPDDSVEVKVKVEFEPPKPPKPPVVELPENGELVFKSAGG [r13_957_TrMRF] | -0.0749 ± 0.21 | < -1 |
| SAGGSGMRKFSPEEAKKKEVVITIPVVTYSPSLKFSPVTVPVTVSGPVTSDEEAKEKVEKAVKELASAGGSA [r2_244_JUSTAS] | -1.03 ± 0.48 | < -1 |
| KTIEIMIPMEQMRNNKPIPADQFLKELAQEFGGPNVKPKVEPMPDNMMKATITLPNGRKIEITDPGAIKIKS [r1_168_TrROS] | -0.43 ± 0.57 | < -1 |
| SAGGSATIKEGQVITRTVTDPSTGKEYEVEITIKKVTKYPASPEGILREEYEIEVKKSPKVSPLKLSAGGSA [r15_248_JUSTAS] | 0.112 ± 0.12 | < -1 |
| SAGGSAGGSAGMSPNIVSYETVESDKNGNIIKKTTYLYSDNTIITETFSPKKKKKIQTFSKESAGGSAGGSA [r18_302_JUSTAS] | -0.434 ± 0.29 | < -1 |
| SAGGSAGGSAGGPVVNILVKHPNGKKETISVDVKEENIGEVATDILPKGYEVLEPSVFPGSAGGSAGGSAGG [r7_159_TrMRF] | -0.258 ± 0.1 | < -1 |
| SAGGSAGGSAGVELPPSLSAEVTPVPGKPGLSRVTITLPDGVVRTIDLERKGDKWIVNPRSAGGSAGGSAGG [r11_177_JUSTAS] | -0.0818 ± 0.14 | < -1 |
| SAGGSAGGSAGMYTVSPVGSGGGGSMIRIENPETGEVIELDFDSEEEAAAAAEELKEKLASAGGSAGGSAGG [r11_848_JUSTAS] | 0.343 ± 0.043 | -0.22 ± 0.17 |
| SAGGSAMVPEDEGLIVVERDVPFDKAEEFVEEVIEELGIPPEKVKKIELFEEKVEDGPALRALVYLSAGGSA [r15_934_TrMRF] | -0.294 ± 0.32 | < -1 |
| SAGGSAGGSMYRYTVTFPNTGTVLEKEFESLEEAKKYIPKDRPIKEIKVEPVEPPVSPEVLLVSAGGSAGGS [r12_851_JUSTAS] | -0.217 ± 0.18 | -0.651 ± 0.26 |
| SAGGMVEIDPNPRVITVTDPSSSKVTKLNLPFPPDEVEKVTVLPDGTIAVYVPATGETIEVPLSELGSAGGS [r16_410_JUSTAS] | -0.136 ± 0.22 | -0.774 ± 0.33 |
| SAGGSAGGSAGGMPIRVYRDPSNPDVVYVETPESTRDVSLEEVERLPVDEIRSAAEVAAESAGGSAGGSAGG [r17_88_JUSTAS] | 0.335 ± 0.021 | -0.206 ± 0.16 |
| SAGGKVEIYNPNGQWKEITPEDLEGLKPGTIWQMPNGPVMIEIPGNDETIPIPMDSPNDIKDAIKDALSAGG [r13_962_TrROS] | 0.246 ± 0.066 | -0.183 ± 0.18 |
| SAGGSAGGSPVTVETSSQTSTVPLPTGPTVTLVTNTTTTTRPVPLSTPRSSSTTTVTTTVTVVSSAGGSAGG [r6_224_JUSTAS] | -0.311 ± 0.11 | < -1 |
| SAGGSAGGSAGGKITIVVSASSPEEAKRFVGELKALGPADIKVIVVPAPKPLPADDPRAKSAGGSAGGSAGG [r7_261_TrMRF] | -0.177 ± 0.21 | < -1 |

| Sequence | folding stability dG unfold [1] [kcal/mol] | folding stability dG unfold [2] [kcal/mol] |
| --- | --- | --- |
| SAGGSAGGSAGGSSRTIKLDGYKITVHPNSVHIYPPKNGKPVTVPMDNPEVQDLIKELISAGGSAGGSAGGS [r4_353_TrROS] | -1.19 ± 0.31 | < -1 |
| SAGGSAGGSAGGSKKIIIPVGNKPIEITLHPDEIPEIHPETNYISIYLPKTNDVLILPVGSAGGSAGGSAGG [r7_7_TrMRF] | -0.0749 ± 0.051 | < -1 |
| SAGGSAGGMSISTEQEGGKITVTDSSPGTPIAELPPDVEKEVETPVIPPPPPLYRLFLPGTVLVSAGGSAGG [r6_40_JUSTAS] | -0.94 ± 0.48 | < -1 |
| SAGGSAGGMVPITDLTVDSEEFVLPTGGVATRETITRPATGLVYEKVVFTPKPGVVEQREVALLSAGGSAGG [r6_895_JUSTAS] | -0.471 ± 0.12 | < -1 |
| SAGGSAGGSAPLEELLDVIRSVPANTRAEFPIIVETETGYVPYIARVENPEPGGALIEIEKASAGGSAGGSA [r18_493_TrMRF] | -0.258 ± 0.11 | < -1 |
| SAGGSAGGSMVTTSIDPSGTAKITVTDGGGVPVSTATIPVDPNAILTYDPNNSSISTFSPVSSSAGGSAGGS [r12_1002_JUSTAS] | 0.519 ± 0.032 | -0.442 ± 0.24 |
| SAGGSAGGSAGNIAERLQEAFPDYGIEVTDITPNGSITVTSRGPPGHRKKIQKAVKELLNSAGGSAGGSAGG [r11_418_TrROS] | -0.879 ± 0.57 | < -1 |
| SAGGSAGGSAGGGPSVAPFEVTELLSVSYVPGPRRFVAVVRLPDPERLVVVPVEDLPPGQSAGGSAGGSAGG [r7_304_TrMRF] | -0.941 ± 0.41 | < -1 |
| SKVLELLKELAKKLGATITEVKVEKLEDGTVKVTATITVTYLDKNGKPVKTETLTLTITVKNGKITEIKLSA [r9_519_TrROS_Hall] | 4.66 ± 0.55 | > 6 |
| SAGGSAGGSASVSSPERFTVPRPDGTPVEVTLVEPEKGYYEVTDPATGERTRLPIEDIPPVSAGGSAGGSAG [r3_213_JUSTAS] | -0.607 ± 0.12 | < -1 |
| SDILERAAEKGVDEIHIMLQPNQIELIKRLQDRGAKIEIHFPPGVPKEYLKKLPGFKVDKVEWMPPDDMPSA [r9_671_TrROS] | -0.928 ± 0.56 | < -1 |
| SAGGWRLNINFPPDNIEKIVEKLRDEFPGWEIKPDKIEYNPDDGQYTIPIEVKSKNPRAAEKIQDAIQSAGG [r13_539_TrROS] | 0.154 ± 0.14 | -0.955 ± 0.39 |
| SAGPKIVEVKPSNGKLEITVEIPVPGAPVLFLNPAKNATIESDPNGRITITLDSEGEYEIIIGNPVFDSAGG [r19_227_TrMRF] | 0.394 ± 0.026 | 0.0526 ± 0.087 |
| SAGGSAGGSAGGTKEFPIWFGGEPVKVTVEPDPDGQPKIEIEEPGGAEITIPPGGPLQFSAGGSAGGSAGGS [r10_989_TrROS] | 0.934 ± 0.061 | 0.343 ± 0.21 |
| SAGKFKITSIKPLYVTTPADAPPVKKPYLVIELDAEDPEKARELAEKLTGAPVLVVEDPETGTATIVIDSAG [r5_907_TrMRF] | 0.121 ± 0.082 | -0.357 ± 0.17 |
| SAGGSAGGSMRFVTIKVPGPDTTFTFDTDGDEALEAKLAELEKKHPEIKKENIEKLEVNPGPGSAGGSAGGS [r12_852_JUSTAS] | -0.345 ± 0.52 | < -1 |
| SAMTLTVPPSLSATDAAGNAIPPSLSIEVEKVTPLPETGKVVAEVKITDPETGETTTRPLTITLPPGEASAG [r14_258_JUSTAS] | 0.827 ± 0.048 | 0.506 ± 0.19 |
| SAGGSAGGSAGSKEKLEEEAKAKGRPVTPLPDGTLKVETVDPNKGTASTTVIDPETAEKLSAGGSAGGSAGG [r11_994_JUSTAS] | -0.626 ± 0.058 | < -1 |
